Assay results from patent publication US20150330991A1, “METHOD FOR IMPROVING TARGET AFFINITY OF PEPTIDE” (GWANGJU INSTITUTE OF SCIENCE AND TECHNOLOGY, priority 2012, published 2015).

Assays:
[1] = molecular target: vascular endothelial growth factor receptor 1 (VEGFR1) (UniProt P17948); test: SPR (Biacore X), VEGFR1 immobilised on a CM5 chip per paragraph 186; compared with the linear peptide CQRPPR at 1 mM
[2] = molecular target: vascular endothelial growth factor receptor 1 (VEGFR1) (UniProt P17948); test: SPR (Biacore X), VEGFR1 immobilised on a CM5 chip per paragraph 186; four sensorgrams with fitted curves

Sequence of vascular endothelial growth factor receptor 1 (VEGFR1) (P17948 27-756 limits assumed): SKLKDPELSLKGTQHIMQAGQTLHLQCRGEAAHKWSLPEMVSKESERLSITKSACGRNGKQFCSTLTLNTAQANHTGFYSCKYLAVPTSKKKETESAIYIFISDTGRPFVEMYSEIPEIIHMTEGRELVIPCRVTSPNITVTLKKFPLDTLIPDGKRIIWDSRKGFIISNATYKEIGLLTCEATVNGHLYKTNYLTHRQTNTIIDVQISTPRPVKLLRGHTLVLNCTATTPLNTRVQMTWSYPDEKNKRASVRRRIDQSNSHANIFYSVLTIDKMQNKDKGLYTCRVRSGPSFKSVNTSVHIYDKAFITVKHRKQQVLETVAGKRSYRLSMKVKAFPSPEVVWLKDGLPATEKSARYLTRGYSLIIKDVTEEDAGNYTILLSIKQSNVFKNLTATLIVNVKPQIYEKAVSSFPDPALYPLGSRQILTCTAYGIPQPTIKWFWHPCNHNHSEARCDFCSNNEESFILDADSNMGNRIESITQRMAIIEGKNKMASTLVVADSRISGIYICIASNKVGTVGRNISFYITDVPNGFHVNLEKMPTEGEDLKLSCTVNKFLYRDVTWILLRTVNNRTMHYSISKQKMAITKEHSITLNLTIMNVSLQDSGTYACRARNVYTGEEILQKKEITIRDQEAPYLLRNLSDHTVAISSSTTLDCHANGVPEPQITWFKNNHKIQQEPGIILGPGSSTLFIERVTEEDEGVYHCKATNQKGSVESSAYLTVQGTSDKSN

- fold increase in affinity [1]: > 10000 fold
- Kd [2]: 212 nM
Substance: bipodal peptide drawn as CQRPPR-GGG-[W--W hairpin]-G-RIPKNR
